# Assay results: US20040018971A1
# T1: HLA-DRB1*0301 (human)
# T1 chain 1: not shown
# T1 chain 2: not shown
# T2: HLA-DRB1*0101 (human)
# T2 chain 1: not shown
# T2 chain 2: not shown
# T3: HLA-DR3 (DRB1*0301) (human)
# T3 chain 1: not shown
# T3 chain 2: not shown
# B1: Her2/neu.48 (peptide)
# peptide: HLYQGCQVV
# B2: Her2/neu.767 (peptide)
# peptide: ILDEAYVMA
# B3: Her2/neu.5 (peptide)
# peptide: ALCRWGLLL
# B4: Her2/neu.435 (peptide)
# peptide: ILHNGAYSL
# B5: HER2/neu DR supermotif exemplary peptide … (position 547) (peptide)
# peptide: LQGLPREYVNARHCL
# B6: HER2/neu DR supermotif exemplary peptide … (position 1109) (peptide)
# peptide: LQRYSEDPTVPLPSE
# B7: Her2/neu.367 (peptide)
# peptide: CKKIFGSLAFLPESF
# B8: Her2/neu.59 (peptide)
# peptide: NLELTYLPTNASLSF
# B9: HER2/neu peptide, position 279, 11 amino acids (peptide)
# peptide: FESMPNPEGRY
# B10: HER2/neu peptide … (position 378) (peptide)
# peptide: PESFDGDPASNTAPL
# B11: HER2/neu peptide … (position 1109) (peptide)
# peptide: LQRYSEDPTVPLPSE
# B12: HER2/neu peptide … (position 547) (peptide)
# peptide: LQGLPREYVNARHCL
# B13: HER2/neu peptide, position 686, 11 amino acids (peptide)
# peptide: TMRRLLQETEL
# B14: HER2/neu peptide, position 907, 9 amino acids (peptide)
# peptide: SYGVTVWEL
# B15: HER2/neu peptide, position 63, 9 amino acids (peptide)
# peptide: TYLPTNASL
# B16: HER2/neu peptide, position 451, 11 amino acids (peptide)
# peptide: SWLGLRSLREL
# B17: HER2/neu peptide, position 8, 9 amino acids (peptide)
# peptide: RWGLLLALL
# B18: HER2/neu peptide, position 8, 8 amino acids (peptide)
# peptide: RWGLLLAL
# B19: HER2/neu peptide, position 978, 9 amino acids (peptide)
# peptide: RMARDPQRF
# B20: HER2/neu peptide, position 281, 11 amino acids (peptide)
# peptide: SMPNPEGRYTF
# B21: HER2/neu peptide, position 451, 8 amino acids (peptide)
# peptide: SWLGLRSL
# B22: HER2/neu peptide, position 917, 10 amino acids (peptide)
# peptide: TFGAKPYDGI
# B23: HER2/neu peptide, position 281, 9 amino acids (peptide)
# peptide: SMPNPEGRY
# B24: HER2/neu peptide, position 898, 9 amino acids (peptide)
# peptide: RFTHQSDVW
# B25: HER2/neu peptide, position 985, 10 amino acids (peptide)
# peptide: RFVVIQNEDL
# B26: HER2/neu peptide, position 1111, 10 amino acids (peptide)
# peptide: RYSEDPTVPL
# B27: HER2/neu peptide, position 834, 8 amino acids (peptide)
# peptide: SYLEDVRL
# B28: HER2/neu peptide, position 907, 10 amino acids (peptide)
# peptide: SYGVTVWELM
# B29: HER2/neu peptide, position 609, 8 amino acids (peptide)
# peptide: SYMPIWKF
# B30: HER2/neu peptide, position 968, 9 amino acids (peptide)
# peptide: RFRELVSEF
# B31: HER2/neu peptide, position 485, 9 amino acids (peptide)
# peptide: LFRNPHQAL
# B32: HER2/neu peptide, position 887, 8 amino acids (peptide)
# peptide: KWMALESI
# B33: HER2/neu peptide, position 197, 9 amino acids (peptide)
# peptide: PMCKGSRCW
# B34: HER2/neu peptide, position 824, 10 amino acids (peptide)
# peptide: NWCMQIAKGM
# B35: HER2/neu peptide, position 107, 11 amino acids (peptide)
# peptide: LFEDNYALAVL
# B36: HER2/neu peptide, position 485, 10 amino acids (peptide)
# peptide: LFRNPHQALL
# B37: HER2/neu peptide, position 800, 8 amino acids (peptide)
# peptide: LMPYGCLL
# B38: HER2/neu peptide, position 107, 8 amino acids (peptide)
# peptide: LFEDNYAL
# B39: HER2/neu peptide, position 780, 9 amino acids (peptide)
# peptide: PYVSRLLGI
# B40: HER2/neu peptide, position 410, 10 amino acids (peptide)
# peptide: LYISAWPDSL
# B41: HER2/neu peptide, position 887, 9 amino acids (peptide)
# peptide: KWMALESIL
# B42: HER2/neu peptide, position 915, 9 amino acids (peptide)
# peptide: LMTFGAKPY
# B43: HER2/neu peptide, position 684, 8 amino acids (peptide)
# peptide: KYTMRRLL
# B44: HER2/neu peptide, position 922, 10 amino acids (peptide)
# peptide: PYDGIPAREI
# B45: HER2/neu peptide, position 408, 8 amino acids (peptide)
# peptide: GYLYISAW
# B46: HER2/neu peptide, position 1022, 9 amino acids (peptide)
# peptide: EYLVPQQGF
# B47: HER2/neu peptide, position 1022, 10 amino acids (peptide)
# peptide: EYLVPQQGFF
# B48: HER2/neu peptide, position 1091, 11 amino acids (peptide)
# peptide: GMGAAKGLQSL
# B49: HER2/neu peptide, position 553, 9 amino acids (peptide)
# peptide: EYVNARHCL
# B50: HER2/neu peptide, position 257, 10 amino acids (peptide)
# peptide: HFNHSGICEL
# B51: HER2/neu peptide, position 738, 11 amino acids (peptide)
# peptide: IWIPDGENVKI
# B52: HER2/neu peptide, position 1091, 8 amino acids (peptide)
# peptide: GMGAAKGL
# B53: HER2/neu peptide, position 370, 8 amino acids (peptide)
# peptide: IFGSLAFL
# B54: HER2/neu peptide, position 876, 11 amino acids (peptide)
# peptide: EYHADGGKVPI
# B55: HER2/neu peptide, position 172, 8 amino acids (peptide)
# peptide: IFHKNNQL
# B56: HER2/neu peptide, position 954, 8 amino acids (peptide)
# peptide: IMVKCWMI
# B57: HER2/neu peptide, position 905, 9 amino acids (peptide)
# peptide: VWSYGVTVW
# B58: HER2/neu peptide, position 772, 10 amino acids (peptide)
# peptide: YVMAGVGSPY
# B59: HER2/neu peptide, position 951, 10 amino acids (peptide)
# peptide: VYMIMVKCWM
# B60: HER2/neu peptide, position 905, 11 amino acids (peptide)
# peptide: VWSYGVTVWEL
# Biological target: HLA-A*0201 (human)
# Assay: competitive inhibition of 125I-labeled probe peptide binding to purified HLA-A*0201
# Conditions: remark: other sources report otherwise
row,Binder,IC50 [nM]
1,B1,< 500
2,B2,< 500
3,B3,< 500
4,B4,< 500

# Biological target: T1, HLA-DRB1*0301 (human)
# Assay: competition with 125I-labeled standard peptide, purified HLA-DR, gel filtration
# Conditions: remark: other sources report otherwise
row,Binder,relative binding ratio (ratio (standard IC50 / test IC50))
1,B5,-0.0027
2,B6,0.027

# Biological target: T2, HLA-DRB1*0101 (human)
# Assay: competition with 125I probe peptide, purified HLA
# Conditions: remark: other sources report otherwise
row,Binder,IC50 [nM]
1,B7,21
2,B8,11

# Biological target: HLA-A*0101 (human)
# Assay: competition with 125I-labelled probe peptide for purified HLA-A*0101, gel filtration; relative to standard peptide
# Conditions: remark: other sources report otherwise
row,Binder,relative binding ratio (IC50 of standard peptide / IC50 of test peptide) (relative binding ratio)
1,B9,0.0049

# Biological target: T3, HLA-DR3 (DRB1*0301) (human)
# Assay: competition binding assay, purified HLA, 125I-labelled probe peptide, gel filtration
# Conditions: remark: other sources report otherwise
row,Binder,relative binding ratio (ratio to standard peptide)
1,B10,-0.0027
2,B11,0.027
3,B12,-0.0027

# Biological target: T2, HLA-DRB1*0101 (human)
# Assay: inhibition of 125I probe peptide binding to purified HLA-DR, gel filtration
# Conditions: remark: other sources report otherwise
row,Binder,IC50 [nM]
1,B7,21
2,B8,11

# Biological target: HLA-A*2401 (human)
# Assay: inhibition of 125I-labelled standard peptide binding to purified HLA, gel filtration
# Conditions: not given
row,Binder,relative binding ratio (IC50 of standard peptide / IC50 of test peptide)
1,B13,-0.0003
2,B14,0.12
3,B15,0.038
4,B16,0.0036
5,B17,1.3
6,B18,0.025
7,B19,0.0032
8,B20,0.018
9,B21,-0.0003
10,B22,0.0002
11,B23,0.0001
12,B24,0.011
13,B25,0.0002
14,B26,0.012
15,B27,0.0059
16,B28,0.063
17,B29,0.32
18,B30,0.018

# Biological target: HLA-A*2401 (human)
# Assay: competition with 125I-labelled standard peptide for purified HLA, gel filtration
# Conditions: not given
row,Binder,relative binding ratio (IC50 of standard peptide / IC50 of test peptide) (ratio to standard peptide)
1,B31,0.0002
2,B32,0.008
3,B33,0.0011
4,B34,0.0002
5,B35,0.0006
6,B36,0.0014
7,B37,0.0076
8,B38,0.0006
9,B39,0.17
10,B40,0.084
11,B41,0.015
12,B42,0.0001
13,B43,0.0024
14,B44,0.0005

# Biological target: HLA-A*2401 (purified HLA class I molecule) (human)
# Assay: as above
# Conditions: scale: ratio
row,Binder,relative binding ratio
1,B45,0.0044
2,B46,0.0014
3,B47,0.012
4,B48,-0.0003
5,B49,0.0061
6,B50,0.0002
7,B51,0.0027
8,B52,-0.0003
9,B53,0.012
10,B54,-0.0003
11,B55,-0.0003
12,B56,0.021

# Biological target: HLA-A*2401 (purified HLA class I molecule) (human)
# Assay: competition with 125I-labelled probe peptide for purified HLA, gel filtration
# Conditions: not given
row,Binder,relative binding ratio (IC50 of standard peptide / IC50 of test peptide)
1,B57,0.08
2,B58,0.0001
3,B59,0.022
4,B60,0.092
